Our source for the Absorbance values is patent publication US20100285506A1.

The target of assay [1] is MPT64 (Mycobacterium tuberculosis). The assay is described as follows: CAPILIA TB kit; pretreated patient sputum, sample number 1, smear +.
The target is the same in assay [2]. As to the kind of experiment: CAPILIA TB kit; pretreated patient sputum, sample number 2, smear +.
For assay [3] the target is unchanged. The assay is described as follows: CAPILIA TB kit; pretreated patient sputum, sample number 3, smear +.
For assay [4] the target is unchanged. As to the kind of experiment: CAPILIA TB kit; pretreated patient sputum, sample number 4, smear 2+.
The target is the same in assay [5]. As to the kind of experiment: CAPILIA TB kit; pretreated patient sputum, sample number 5, smear 2+.
Assay [6] has the same target. As to the kind of experiment: CAPILIA TB kit; pretreated patient sputum, sample number 6, smear 3+.
Assay [7] shares this target. The assay is described as follows: CAPILIA TB kit; pretreated patient sputum, sample number 7, smear 3+.
The target is the same in assay [8]. As to the kind of experiment: CAPILIA TB kit; pretreated patient sputum, sample number 8, smear 3+.

For the substance “CAPILIA TB (trade name; manufactured by TAUNS LABORATORIES INC.)”, the Absorbance in assay [1], in assay [2], in assay [3], in assay [4], in assay [5] and in assay [6] was 0 in each case. The results for the Absorbance in assay [7] and in assay [8] were 0 and 23, respectively.
